# From patent US20260242735A1 (UNIVERSIT T BASEL, published 2026)
# B1: Refmab #1 (antibody, V domains shown)
# VH: EVQLVQSGAEVKKPGSSVKVSCKASGYTITDSNIHWVRQAPGQSLEWIGYIYPYNGGTDYNQKFKNRATLTVDNPTNTAYMELSSLRSEDTAFYYCVNGNPWLAYWGQGTLVTVSS
# VL: DIQLTQSPSTLSASVGDRVTITCRASESLDNYGIRFLTWFQQKPGKAPKLLMYAASNQGSGVPSRFSGSGSGTEFTLTISSLQPDDFATYYCQQTKEVPWSFGQGTKVEVK
# notes: The alanine scan used IgG or Fab; also called hP67.6
# B2: Refmab #2 (antibody, V domains shown)
# VH: QVQLVQSGAEVKKPGSSVKVSCKASGGTFSDYAISWVRQAPGQGLEWMGRIIPILGVADYAQKFQGRVTITADKSTRTAYMELSSLRSEDTAVYYCARNWADAFDIWGQGTMVTVSS
# VL: DIQLTQSPSSLSASVGDRVTITCRASQGISSVLAWYQQKPGKAPKLLIYDASSLESGVPSRFSGSGSGTDFTLTISSLQPEDFATYYCQQFDSSITFGQGTKLEIK
# notes: The alanine scan used IgG or Fab
# B3: Refmab #3 (antibody, V domains shown)
# VH: QVQLVQSGAEVKKPGSSVKVSCKASGYTFTDYNMHWVRQAPGQGLEWIGYIYPYNGGTGYNQKFKSKATITADESTNTAYMELSSLRSEDTAVYYCARGRPAMDYWGQGTLVTVSS
# VL: DIQMTQSPSSLSASVGDRVTITCRASESVDNYGISFMNWFQQKPGKAPKLLIYAASNQGSGVPSRFSGSGSGTDFTLTISSLQPDDFATYYCQQSKEVPWTFGQGTKVEIK
# notes: as for B2
# B4: Refmab #4 (antibody, V domains shown)
# VH: QVQLVQSGAEVKKPGESVKVSCKASGYTFTNYGMNWVKQAPGQGLEWMGWINTYTGEPTYADKFQGRVTMTTDTSTSTAYMEIRNLGGDDTAVYYCARWSWSDGYYVYFDYWGQGTSVTVSS
# VL: DIVMTQSPDSLTVSLGERTTINCKSSQSVLDSSTNKNSLAWYQQKPGQPPKLLLSWASTRESGIPDRFSGSGSGTDFTLTIDSPQPEDSATYYCQQSAHFPITFGQGTRLEIK
# notes: as for B2
# Experiments:
# Assay in all cases: flow cytometry on HEK293-T, alanine scan
# [1] = biological target: human CD33 C163A (human, UniProt P20138 18-364)
# [2] = biological target: human CD33 T162A (human, UniProt P20138 18-364)
# [3] = biological target: human CD33 E154A (human, UniProt P20138 18-364)
# [4] = biological target: human CD33 Y129A (human, UniProt P20138 18-364)
# [5] = biological target: human CD33 S104A (human, UniProt P20138 18-364)
# [6] = biological target: human CD33 N160A (human, UniProt P20138 18-364)
# [7] = biological target: human CD33 I105A (human, UniProt P20138 18-364)
# [8] = biological target: human CD33 D140A (human, UniProt P20138 18-364)
# [9] = biological target: human CD33 S124A (human, UniProt P20138 18-364)
# [10] = biological target: human CD33 H143A (human, UniProt P20138 18-364)
# [11] = biological target: human CD33 S166A (human, UniProt P20138 18-364)
# [12] = biological target: human CD33 S135A (human, UniProt P20138 18-364)
# [13] = biological target: human CD33 S128A (human, UniProt P20138 18-364)
# [14] = biological target: human CD33 L148A (human, UniProt P20138 18-364)
# [15] = biological target: human CD33 K126A (human, UniProt P20138 18-364)
# [16] = biological target: human CD33 L153A (human, UniProt P20138 18-364)
# [17] = biological target: human CD33 R119A (human, UniProt P20138 18-364)
# [18] = biological target: human CD33 H137A (human, UniProt P20138 18-364)
# [19] = biological target: human CD33 L141A (human, UniProt P20138 18-364)
# [20] = biological target: human CD33 V138A (human, UniProt P20138 18-364)
# [21] = biological target: human CD33 K159A (human, UniProt P20138 18-364)
# [22] = biological target: human CD33 G151A (human, UniProt P20138 18-364)
# [23] = biological target: human CD33 G123A (human, UniProt P20138 18-364)
# [24] = biological target: human CD33 M120A (human, UniProt P20138 18-364)
# [25] = biological target: human CD33 G94A (human, UniProt P20138 18-364)
# [26] = biological target: human CD33 L93A (human, UniProt P20138 18-364)
# [27] = biological target: human CD33 I147A (human, UniProt P20138 18-364)
# [28] = biological target: human CD33 T139A (human, UniProt P20138 18-364)
# Chain of human CD33 T139A (P20138 18-364 T139A limits assumed): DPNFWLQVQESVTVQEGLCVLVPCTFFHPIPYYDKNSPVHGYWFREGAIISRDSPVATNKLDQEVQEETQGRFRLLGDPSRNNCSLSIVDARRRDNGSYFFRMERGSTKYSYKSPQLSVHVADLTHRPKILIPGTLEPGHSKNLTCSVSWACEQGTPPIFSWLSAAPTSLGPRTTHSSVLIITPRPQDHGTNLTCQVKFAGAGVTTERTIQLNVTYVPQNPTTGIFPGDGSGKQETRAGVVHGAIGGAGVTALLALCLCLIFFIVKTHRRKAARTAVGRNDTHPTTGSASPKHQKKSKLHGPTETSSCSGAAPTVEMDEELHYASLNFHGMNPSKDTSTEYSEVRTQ
# Chain of human CD33 K126A (P20138 18-364 K126A limits assumed): as the sequence (P20138 18-364 T139A limits assumed) above, with K109A, A122T counted along it
# Chain of human CD33 H137A (P20138 18-364 H137A limits assumed): as the sequence (P20138 18-364 T139A limits assumed) above, with H120A, A122T counted along it
# Chain of human CD33 I105A (P20138 18-364 I105A limits assumed): as the sequence (P20138 18-364 T139A limits assumed) above, with I88A, A122T counted along it
# Chain of human CD33 S104A (P20138 18-364 S104A limits assumed): as the sequence (P20138 18-364 T139A limits assumed) above, with S87A, A122T counted along it
# Chain of human CD33 G94A (P20138 18-364 G94A limits assumed): as the sequence (P20138 18-364 T139A limits assumed) above, with G77A, A122T counted along it
# Chain of human CD33 G123A (P20138 18-364 G123A limits assumed): as the sequence (P20138 18-364 T139A limits assumed) above, with G106A, A122T counted along it
# Chain of human CD33 L141A (P20138 18-364 L141A limits assumed): as the sequence (P20138 18-364 T139A limits assumed) above, with A122T, L124A counted along it
# Chain of human CD33 I147A (P20138 18-364 I147A limits assumed): as the sequence (P20138 18-364 T139A limits assumed) above, with A122T, I130A counted along it
# Chain of human CD33 L93A (P20138 18-364 L93A limits assumed): as the sequence (P20138 18-364 T139A limits assumed) above, with L76A, A122T counted along it
# Chain of human CD33 S135A (P20138 18-364 S135A limits assumed): as the sequence (P20138 18-364 T139A limits assumed) above, with S118A, A122T counted along it
# Chain of human CD33 S128A (P20138 18-364 S128A limits assumed): as the sequence (P20138 18-364 T139A limits assumed) above, with S111A, A122T counted along it
# Chain of human CD33 Y129A (P20138 18-364 Y129A limits assumed): as the sequence (P20138 18-364 T139A limits assumed) above, with Y112A, A122T counted along it
# Chain of human CD33 H143A (P20138 18-364 H143A limits assumed): as the sequence (P20138 18-364 T139A limits assumed) above, with A122T, H126A counted along it
# Chain of human CD33 L148A (P20138 18-364 L148A limits assumed): as the sequence (P20138 18-364 T139A limits assumed) above, with A122T, L131A counted along it
# Chain of human CD33 T162A (P20138 18-364 T162A limits assumed): as the sequence (P20138 18-364 T139A limits assumed) above, with A122T, T145A counted along it
# Chain of human CD33 V138A (P20138 18-364 V138A limits assumed): as the sequence (P20138 18-364 T139A limits assumed) above, with V121A, A122T counted along it
# Chain of human CD33 E154A (P20138 18-364 E154A limits assumed): as the sequence (P20138 18-364 T139A limits assumed) above, with A122T, E137A counted along it
# Chain of human CD33 N160A (P20138 18-364 N160A limits assumed): as the sequence (P20138 18-364 T139A limits assumed) above, with A122T, N143A counted along it
# Chain of human CD33 R119A (P20138 18-364 R119A limits assumed): as the sequence (P20138 18-364 T139A limits assumed) above, with R102A, A122T counted along it
# Chain of human CD33 S124A (P20138 18-364 S124A limits assumed): as the sequence (P20138 18-364 T139A limits assumed) above, with S107A, A122T counted along it
# Chain of human CD33 M120A (P20138 18-364 M120A limits assumed): as the sequence (P20138 18-364 T139A limits assumed) above, with M103A, A122T counted along it
# Chain of human CD33 D140A (P20138 18-364 D140A limits assumed): as the sequence (P20138 18-364 T139A limits assumed) above, with A122T, D123A counted along it
# Chain of human CD33 S166A (P20138 18-364 S166A limits assumed): as the sequence (P20138 18-364 T139A limits assumed) above, with A122T, S149A counted along it
# Chain of human CD33 K159A (P20138 18-364 K159A limits assumed): as the sequence (P20138 18-364 T139A limits assumed) above, with A122T, K142A counted along it
# Chain of human CD33 G151A (P20138 18-364 G151A limits assumed): as the sequence (P20138 18-364 T139A limits assumed) above, with A122T, G134A counted along it
# Chain of human CD33 C163A (P20138 18-364 C163A limits assumed): as the sequence (P20138 18-364 T139A limits assumed) above, with A122T, C146A counted along it
# Chain of human CD33 L153A (P20138 18-364 L153A limits assumed): as the sequence (P20138 18-364 T139A limits assumed) above, with A122T, L136A counted along it
binder,measurement,setting,value
B1,Mean % WT Binding,[1],84.6 % WT binding
same,Mean % WT Binding,[2],86.9 % WT binding
same,Mean % WT Binding,[3],88 % WT binding
same,Mean % WT Binding,[4],53.2 % WT binding
same,Mean % WT Binding,[5],89 % WT binding
same,Mean % WT Binding,[6],82.3 % WT binding
same,Mean % WT Binding,[7],31.5 % WT binding
same,Mean % WT Binding,[8],88.7 % WT binding
same,Mean % WT Binding,[9],87.5 % WT binding
same,Mean % WT Binding,[10],88.8 % WT binding
same,Mean % WT Binding,[11],98.3 % WT binding
same,Mean % WT Binding,[12],98.6 % WT binding
same,Mean % WT Binding,[13],118 % WT binding
same,Mean % WT Binding,[14],83.1 % WT binding
same,Mean % WT Binding,[15],100 % WT binding
same,Mean % WT Binding,[16],75.7 % WT binding
same,Mean % WT Binding,[17],109 % WT binding
same,Mean % WT Binding,[18],83.8 % WT binding
same,Mean % WT Binding,[19],103 % WT binding
same,Mean % WT Binding,[20],72.3 % WT binding
same,Mean % WT Binding,[21],119 % WT binding
same,Mean % WT Binding,[22],81.1 % WT binding
same,Mean % WT Binding,[23],107 % WT binding
same,Mean % WT Binding,[24],79.8 % WT binding
same,Mean % WT Binding,[25],88.3 % WT binding
same,Mean % WT Binding,[26],88.6 % WT binding
same,Mean % WT Binding,[27],71.6 % WT binding
same,Mean % WT Binding,[28],89.9 % WT binding
B2,Mean % WT Binding,[1],97.7 % WT binding
same,Mean % WT Binding,[2],102 % WT binding
same,Mean % WT Binding,[3],112 % WT binding
same,Mean % WT Binding,[4],137 % WT binding
same,Mean % WT Binding,[5],109 % WT binding
same,Mean % WT Binding,[6],107 % WT binding
same,Mean % WT Binding,[7],43.7 % WT binding
same,Mean % WT Binding,[8],109 % WT binding
same,Mean % WT Binding,[9],111 % WT binding
same,Mean % WT Binding,[10],104 % WT binding
same,Mean % WT Binding,[11],114 % WT binding
same,Mean % WT Binding,[12],120 % WT binding
same,Mean % WT Binding,[13],140 % WT binding
same,Mean % WT Binding,[14],119 % WT binding
same,Mean % WT Binding,[15],121 % WT binding
same,Mean % WT Binding,[16],121 % WT binding
same,Mean % WT Binding,[17],130 % WT binding
same,Mean % WT Binding,[18],120 % WT binding
same,Mean % WT Binding,[19],113 % WT binding
same,Mean % WT Binding,[20],98.5 % WT binding
same,Mean % WT Binding,[21],134 % WT binding
same,Mean % WT Binding,[22],132 % WT binding
same,Mean % WT Binding,[23],82 % WT binding
same,Mean % WT Binding,[24],70.7 % WT binding
same,Mean % WT Binding,[25],108 % WT binding
same,Mean % WT Binding,[26],103 % WT binding
same,Mean % WT Binding,[27],92.2 % WT binding
same,Mean % WT Binding,[28],123 % WT binding
B3,Mean % WT Binding,[1],65.7 % WT binding
same,Mean % WT Binding,[2],109 % WT binding
same,Mean % WT Binding,[3],126 % WT binding
same,Mean % WT Binding,[5],102 % WT binding
same,Mean % WT Binding,[6],99.3 % WT binding
same,Mean % WT Binding,[7],64.7 % WT binding
same,Mean % WT Binding,[8],119 % WT binding
same,Mean % WT Binding,[9],274 % WT binding
same,Mean % WT Binding,[10],97.9 % WT binding
same,Mean % WT Binding,[11],131 % WT binding
same,Mean % WT Binding,[12],107 % WT binding
same,Mean % WT Binding,[13],446 % WT binding
same,Mean % WT Binding,[14],108 % WT binding
same,Mean % WT Binding,[15],566 % WT binding
same,Mean % WT Binding,[16],144 % WT binding
same,Mean % WT Binding,[17],1020 % WT binding
same,Mean % WT Binding,[18],100 % WT binding
same,Mean % WT Binding,[19],153 % WT binding
same,Mean % WT Binding,[20],129 % WT binding
same,Mean % WT Binding,[21],110 % WT binding
same,Mean % WT Binding,[22],108 % WT binding
same,Mean % WT Binding,[23],292 % WT binding
same,Mean % WT Binding,[25],115 % WT binding
same,Mean % WT Binding,[26],120 % WT binding
same,Mean % WT Binding,[27],67.1 % WT binding
same,Mean % WT Binding,[28],143 % WT binding
B4,Mean % WT Binding,[1],43.3 % WT binding
same,Mean % WT Binding,[2],79.9 % WT binding
same,Mean % WT Binding,[3],84.4 % WT binding
same,Mean % WT Binding,[4],319 % WT binding
same,Mean % WT Binding,[5],86.4 % WT binding
same,Mean % WT Binding,[6],102 % WT binding
same,Mean % WT Binding,[7],21.6 % WT binding
same,Mean % WT Binding,[8],96.1 % WT binding
same,Mean % WT Binding,[9],58.8 % WT binding
same,Mean % WT Binding,[10],106 % WT binding
same,Mean % WT Binding,[11],110 % WT binding
same,Mean % WT Binding,[12],109 % WT binding
same,Mean % WT Binding,[13],184 % WT binding
same,Mean % WT Binding,[14],113 % WT binding
same,Mean % WT Binding,[15],212 % WT binding
same,Mean % WT Binding,[16],92.5 % WT binding
same,Mean % WT Binding,[17],138 % WT binding
same,Mean % WT Binding,[18],108 % WT binding
same,Mean % WT Binding,[19],93.7 % WT binding
same,Mean % WT Binding,[21],118 % WT binding
same,Mean % WT Binding,[22],101 % WT binding
same,Mean % WT Binding,[23],97.9 % WT binding
same,Mean % WT Binding,[24],96.8 % WT binding
same,Mean % WT Binding,[25],59 % WT binding
same,Mean % WT Binding,[26],63.9 % WT binding
same,Mean % WT Binding,[27],58.7 % WT binding
same,Mean % WT Binding,[28],84.3 % WT binding
